Measurements: patent US20240200044, “EVOLUTION OF TALENS” (President and Fellows of Harvard College, published 2024)

Target: T1, CBX8-directed TALE-omega (synthetic construct, UniProt Q56830 SEQ:41-724)
T1 chain: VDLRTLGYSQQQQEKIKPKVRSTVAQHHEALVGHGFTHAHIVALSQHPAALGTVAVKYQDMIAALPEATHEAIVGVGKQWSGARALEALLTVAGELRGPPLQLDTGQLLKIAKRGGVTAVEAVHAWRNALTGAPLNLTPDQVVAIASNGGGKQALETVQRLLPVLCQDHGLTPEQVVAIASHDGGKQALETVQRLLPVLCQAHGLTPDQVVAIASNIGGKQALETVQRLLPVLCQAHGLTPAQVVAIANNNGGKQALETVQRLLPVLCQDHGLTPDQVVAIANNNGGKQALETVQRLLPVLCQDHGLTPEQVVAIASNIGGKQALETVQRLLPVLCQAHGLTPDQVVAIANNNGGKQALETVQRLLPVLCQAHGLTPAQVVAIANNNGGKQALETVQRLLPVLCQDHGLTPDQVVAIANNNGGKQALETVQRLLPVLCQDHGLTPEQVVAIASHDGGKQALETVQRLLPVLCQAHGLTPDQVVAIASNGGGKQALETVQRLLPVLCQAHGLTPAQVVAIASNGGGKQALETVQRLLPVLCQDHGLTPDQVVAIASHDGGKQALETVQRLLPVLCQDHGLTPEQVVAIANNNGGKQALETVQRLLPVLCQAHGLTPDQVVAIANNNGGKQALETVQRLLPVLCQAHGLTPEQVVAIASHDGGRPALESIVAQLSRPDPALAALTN
Assay: one_hybrid; luciferase induction, 18 aa C-terminus plus GGGGS linker
Conditions: tags: N-terminal FLAG-NLS, C-terminal RNAP omega
Method: This system was used to continuously evolve TALE proteins with novel properties. A series of C-terminal fusions between a previously reported TALE array targeting CBX8 (right half-site TALE)¹⁸, and the RNAP w subunit were tested. […] The sequence specificity of the system was verified using an off-target sequence in the luciferase assay, and performed on- and off-target colorimetric plaque assays using TALE-ω SP and host cells harboring the AP containing the target CBX8 sequence. Similar to the findings with zinc fingers, both luciferase expression and phage propagation were dependent on the presence of the cognate TALE binding site (FIG. 10B). Finally, PACE was performed for 24 h on the cognate AP to optimize the SP backbone.
Luciferase assay. pOH plasmids were transformed by electroporation into S1030 cells, and grown overnight at 37° C. on LB-agar plates supplemented with 50 μg/mL carbenicillin. Single colonies were used to inoculate cultures which were allowed to grow for ˜12 h at 37° C. in DRM supplemented with 50 μg/mL carbenicillin in a shaker. Cultures were diluted to an OD₆₀₀ of ˜0.3 and allowed to grow for an additional 2 h at 37° C. […] 200 μL aliquots of each sample were then transferred to 96-well opaque plates and luminescence and OD₆₀₀ readings were taken using a Tecan Infinite Pro instrument. Luminescence data were normalized to cell density by dividing by the OD₆₀₀ value.

B1: CBX8 5'T site (dsDNA)
DNA 1: TTCAGGAGGGCTTCGGC
DNA 2: GCCGAAGCCCTCCTGAA
In the case of B1, the binding signal is reported as > 10 fold.
